From PMC6769930, “Endoglin Protein Interactome Profiling Identifies TRIM21 and Galectin-3 as New Binding Partners” (Cells, 2019)

T1: recombinant human soluble endoglin (sEng; Glu26-Gly586) (human, UniProt P17813 26-586)
T1 construct: human endoglin (CD105), extracellular domain, Glu26-Gly586; The same bought protein was the probe of the array and the analyte of the BLI; also called recombinant human endoglin/CD105 protein; source: bought: R&D Systems (1097-EN), purified recombinant
T1 sequence (looked up): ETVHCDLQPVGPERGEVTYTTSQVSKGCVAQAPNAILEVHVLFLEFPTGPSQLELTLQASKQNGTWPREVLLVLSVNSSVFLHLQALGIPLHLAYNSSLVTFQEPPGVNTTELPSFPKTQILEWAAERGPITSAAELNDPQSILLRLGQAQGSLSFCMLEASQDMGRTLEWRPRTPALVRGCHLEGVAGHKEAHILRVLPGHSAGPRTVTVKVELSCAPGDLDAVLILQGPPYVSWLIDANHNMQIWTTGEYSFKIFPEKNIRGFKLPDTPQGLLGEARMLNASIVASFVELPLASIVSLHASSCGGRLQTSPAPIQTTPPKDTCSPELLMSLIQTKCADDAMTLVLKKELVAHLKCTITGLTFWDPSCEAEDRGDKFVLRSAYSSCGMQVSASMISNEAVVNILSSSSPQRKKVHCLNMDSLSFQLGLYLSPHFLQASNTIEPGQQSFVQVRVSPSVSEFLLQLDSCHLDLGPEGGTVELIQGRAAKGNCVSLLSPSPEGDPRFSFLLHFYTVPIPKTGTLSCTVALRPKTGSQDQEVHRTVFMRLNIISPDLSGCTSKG

B1: Coiled-coil domain containing 55 (CCDC55), transcript variant 1 (natural protein, human, UniProt Q9H0G5 1-558, looked up)
chain: MAIPGRQYGLILPKKTQQLHPVLQKPSVFGNDSDDDDETSVSESLQREAAKKQAMKQTKLEIQKALAEDATVYEYDSIYDEMQKKKEENNPKLLLGKDRKPKYIHNLLKAVEIRKKEQEKRMEKKIQREREMEKGEFDDKEAFVTSAYKKKLQERAEEEEREKRAAALEACLDVTKQKDLSGFYRHLLNQAVGEEEVPKCSFREARSGIKEEKSRGFSNEVSSKNRIPQEKCILQTDVKVEENPDADSDFDAKSSADDEIEETRVNCRREKVIETPENDFKHHRSQNHSRSPSEERGHSTRHHTKGSRTSRGHEKREDQHQQKQSRDQENHYTDRDYRKERDSHRHREASHRDSHWKRHEQEDKPRARDQRERSDRVWKREKDREKYSQREQERDRQQNDQNRPSEKGEKEEKSKAKEEHMKVRKERYENNDKYRDREKREVGVQSSERNQDRKESSPNSRAKDKFLDQERSNKMRNMAKDKERNQEKPSNSESSLGAKHRLTEEGQEKGKEQERPPEAVSKFAKRNNEETVMSARDRYLARQMARVNAKTYIEKEDD
notes: human CCDC55, transcript variant 1; source: bought: ProtoArray human protein Microarray v5.0 (Life Technologies), individually purified and arrayed
B2: Origin recognition complex, subunit 6 like (yeast) (ORC6L) (natural protein, human, UniProt Q9Y5N6 1-252, looked up)
chain: MGSELIGRLAPRLGLAEPDMLRKAEEYLRLSRVKCVGLSARTTETSSAVMCLDLAASWMKCPLDRAYLIKLSGLNKETYQSCLKSFECLLGLNSNIGIRDLAVQFSCIEAVNMASKILKSYESSLPQTQQVDLDLSRPLFTSAALLSACKILKLKVDKNKMVATSGVKKAIFDRLCKQLEKIGQQVDREPGDVATPPRKRKKIVVEAPAKEMEKVEEMPHKPQKDEDLTQDYEEWKRKILENAASAQKATAE
notes: human origin recognition complex subunit 6; source: bought: ProtoArray human protein Microarray v5.0 (Life Technologies), individually purified and arrayed
B3: Family with sequence similarity 39, member B (FAM39B) (natural protein, human, UniProt Q6VEQ5 1-465, looked up)
chain: MTPVRMQHSLAGQTYAVPLIQPDLRREEAVQQMADALQYLQKVSGDIFSRISQQVEQSRSQVQAIGEKVSLAQAKIEKIKGSKKAIKVFSSAKYPAPERLQEYGSIFTGAQDPGLQRRPRHRIQSKHRPLDERALQEKLKDFPVCVSTKPEPEDDAEEGLGGLPSNISSVSSLLLFNTTENLYKKYVFLDPLAGAVTKTHVMLGAETEEKLFDAPLSISKREQLEQQVPENYFYVPDLGQVPEIDVPSYLPDLPGIANDLMYIADLGPGIAPSAPGTIPELPTFHTEVAEPLKVDLQDGVLTPPPPPPPPPPAPEVLASAPPLPPSTAAPVGQGARQDDSSSSASPSVQGAPREVVDPSGGRATLLESIRQAGGIGKAKLRSMKERKLEKKKQKEQEQVRATSQGGHLMSDLFNKLVMRRKGISGKGPGAGEGPGGAFARVSDSIPPLPPPQQPQAEEDEDDWES
notes: human FAM39B; source: bought: ProtoArray human protein Microarray v5.0 (Life Technologies), individually purified and arrayed
B4: HIRA interacting protein 3 (HIRIP3) (natural protein, human, UniProt Q9BW71-1 1-556, looked up)
chain: MAREKEMQEFTRSFFRGRPDLSTLTHSIVRRRYLAHSGRSHLEPEEKQALKRLVEEELLKMQVDEAASREDKLDLTKKGKRPPTPCSDPERKRFRFNSESESGSEASSPDYFGPPAKNGVAAEVSPAKEENPRRASKAVEESSDEERQRDLPAQRGEESSEEEEKGYKGKTRKKPVVKKQAPGKASVSRKQAREESEESEAEPVQRTAKKVEGNKGTKSLKESEQESEEEILAQKKEQREEEVEEEEKEEDEEKGDWKPRTRSNGRRKSAREERSCKQKSQAKRLLGDSDSEEEQKEAASSGDDSGRDREPPVQRKSEDRTQLKGGKRLSGSSEDEEDSGKGEPTAKGSRKMARLGSTSGEESDLEREVSDSEAGGGPQGERKNRSSKKSSRKGRTRSSSSSSDGSPEAKGGKAGSGRRGEDHPAVMRLKRYIRACGAHRNYKKLLGSCCSHKERLSILRAELEALGMKGTPSLGKCRALKEQREEAAEVASLDVANIISGSGRPRRRTAWNPLGEAAPPGELYRRTLDSDEERPRPAPPDWSHMRGIISSDGESN
notes: source: bought: ProtoArray human protein Microarray v5.0 (Life Technologies), individually purified and arrayed
B5: Spliceosome-associated protein CWC15 homolog (HSPC148) (natural protein, human, UniProt Q9P013 1-229, looked up)
chain: MTTAARPTFEPARGGRGKGEGDLSQLSKQYSSRDLPSHTKIKYRQTTQDAPEEVRNRDFRRELEERERAAAREKNRDRPTREHTTSSSVSKKPRLDQIPAANLDADDPLTDEEDEDFEEESDDDDTAALLAELEKIKKERAEEQARKEQEQKAEEERIRMENILSGNPLLNLTGPSQPQANFKVKRRWDDDVVFKNCAKGVDDQKKDKRFVNDTLRSEFHKKFMEKYIK
notes: human spliceosome-associated protein CWC15 homolog; source: bought: ProtoArray human protein Microarray v5.0 (Life Technologies), individually purified and arrayed
B6: Cortactin (CTTN), transcript variant 2 (natural protein, human, UniProt Q14247-3 1-513, looked up)
chain: MWKASAGHAVSIAQDDAGADDWETDPDFVNDVSEKEQRWGAKTVQGSGHQEHINIHKLRENVFQEHQTLKEKELETGPKASHGYGGKFGVEQDRMDKSAVGHEYQSKLSKHCSQVDSVRGFGGKFGVQMDRVDQSAVGFEYQGKTEKHASQKDYSSGFGGKYGVQADRVDKSAVGFDYQGKTEKHESQRDYSKGFGGKYGIDKDKVDKSAVGFEYQGKTEKHESQKDYVKGFGGKFGVQTDRQDKCALGWDHQEKLQLHESQKDYSKGFGGKYGVQKDRMDKNASTFEDVTQVSSAYQKTVPVEAVTSKTSNIRANFENLAKEKEQEDRRKAEAERAQRMAKERQEQEEARRKLEEQARAKTQTPPVSPAPQPTEERLPSSPVYEDAASFKAELSYRGPVSGTEPEPVYSMEAADYREASSQQGLAYATEAVYESAEAPGHYPAEDSTYDEYENDLGITAVALYDYQAAGDDEISFDPDDIITNIEMIDDGWWRGVCKGRYGLFPANYVELRQ
notes: as for B4
B7: Potassium voltage-gated channel, shaker-related subfamily, beta member 1 (KCNAB1), transcript variant 1 (natural protein, human, UniProt Q14722-1 1-419, looked up)
chain: MLAARTGAAGSQISEENTKLRRQSGFSVAGKDKSPKKASENAKDSSLSPSGESQLRARQLALLREVEMNWYLKLCDLSSEHTTVCTTGMPHRNLGKSGLRVSCLGLGTWVTFGGQISDEVAERLMTIAYESGVNLFDTAEVYAAGKAEVILGSIIKKKGWRRSSLVITTKLYWGGKAETERGLSRKHIIEGLKGSLQRLQLEYVDVVFANRPDSNTPMEEIVRAMTHVINQGMAMYWGTSRWSAMEIMEAYSVARQFNMIPPVCEQAEYHLFQREKVEVQLPELYHKIGVGAMTWSPLACGIISGKYGNGVPESSRASLKCYQWLKERIVSEEGRKQQNKLKDLSPIAERLGCTLPQLAVAWCLRNEGVSSVLLGSSTPEQLIENLGAIQVLPKMTSHVVNEIDNILRNKPYSKKDYRS
notes: human KCNAB1, transcript variant 1; source: bought: ProtoArray human protein Microarray v5.0 (Life Technologies), individually purified and arrayed
B8: Family with sequence similarity 126, member B (FAM126B) (natural protein, human, UniProt Q8IXS8 1-530, looked up)
chain: MLGTDRCVVEEWLSEFKALPDTQITSYAATLHRKKTLVPALYKVIQDSNNELLEPVCHQLFELYRSSEVRLKRFTLQFLPELMWVYLRLTVSRDRQSNGCIEALLLGIYNLEIADKDGNNKVLSFTIPSLSKPSIYHEPSTIGSMALTEGALCQHDLIRVVYSDLHPQRETFTAQNRFEVLSFLMLCYNSAIVYMPASSYQSLCRMGSRVCVSGFPRQHEKHWKELCGRIVLDPEFMVQLLTGVYYAMYNGQWDLGQEVLDDIIYRAQLELFSQPLLVANAMKNSLPFDAPDSTQEGQKVLKVEVTPTVPRISRTAITTASIRRHRWRREGAEGVNGGEESVNLNDADEGFSSGASLSSQPIGTKPSSSSQRGSLRKVATGRSAKDKETASAIKSSESPRDSVVRKQYVQQPTDLSVDSVELTPMKKHLSLPAGQVVPKINSLSLIRTASASSSKSFDYVNGSQASTSIGVGTEGGTNLAANNANRYSTVSLQEDRLGQAGEGKELLSPGAPLTKQSRSPSFNMQLISQV
notes: human FAM126B; source: bought: ProtoArray human protein Microarray v5.0 (Life Technologies), individually purified and arrayed
B9: RAD51 associated protein 1 (RAD51AP1) (natural protein, human, UniProt Q96B01-2 1-335, looked up)
chain: MVRPVRHKKPVNYSQFDHSDSDDDFVSATVPLNKKSRTAPKELKQDKPKPNLNNLRKEEIPVQEKTPKKRMALDDKLYQRDLEVALALSVKELPTVTTNVQNSQDKSIEKHGSSKIETMNKSPHISNCSVASDYLDLDKITVEDDVGGVQGKRKAASKAAAQQRKILLEGSDGDSANDTEPDFAPGEDSEDDSDFCESEDNDEDFSMRKSKVKEIKKKEVKVKSPVEKKEKKSKSKCNALVTSVDSAPAAVKSESQSLPKKVSLSSDTTRKPLEIRSPSAESKKPKWVPPAASGGSRSSSSPLVVVSVKSPNQSLRLGLSRLARVKPLHPNATST
notes: human RAD51 associated protein 1; source: bought: ProtoArray human protein Microarray v5.0 (Life Technologies), individually purified and arrayed

target: T1, recombinant human soluble endoglin …; assay: peptide or protein array; ProtoArray human protein Microarray v5.0 (over 9000 human proteins arrayed) probed with recombinant sEng in two replicates; detection with anti-endoglin mAb SN6h and HRP secondary antibody; hits with Z-score >=2.0 in both arrays; conditions: both partners purified

Row | binding result | Binder
1 | binds | B1
2 | binds | B2
3 | binds | B3
4 | binds | B4
5 | binds | B5
6 | binds | B6
7 | binds | B7
8 | binds | B8
9 | binds | B9
